From patent US12173330B2, “Method for producing hydroxy-L-pipecolic acid” (API CORPORATION, priority 2015, dated 2024)

Key:
[1] = Catalytic efficiency (kcat/Km) of L-pipecolic acid hydroxylases with L-proline (Example 3); type: biochemical; settings: for hydroxy-L-proline detected from the reaction solution: L-proline as substrate, Example 3, in words; for Activity, Substrate: L-proline (cell spanning Km to kcat/Km): in words
Method: Each of the obtained recombinant E. coli strains in a volume of 0.6 mL was recovered by centrifugation and was suspended in 0.5 mL of 50 mmol/L MES (2-morpholinoethanesulfonic acid) buffer at pH 6. The container containing the suspension was placed in ice-water bath to perform sonication and then spun at 12,000 rpm. The obtained supernatant was used as an enzyme solution in Example 3.
Subsequently, 0.05 mL of 1 mol/L hydrochloric acid was added to stop the reaction.
The reaction using L-proline as a substrate was carried out under the same conditions as in the above reaction using L-pipecolic acid.
Then, each reaction solution was treated using 1-fluoro-2,4-dinitrophenyl-5-L-alaninamide (FDAA) (manufactured by Tokyo Chemical Industry Co., Ltd.) according to a method as described below, to obtain a FDAA-derivative of a hydroxy-L-pipecolic acid or hydroxy-L-proline included in each reaction solution.
To the reaction solution after stopping the reaction, 0.05 mL of 1 mol/L sodium hydroxide was added for neutralization. After centrifuging the solution at 12,000 rpm, 15 μL of 0.5 mol/L borate buffer (pH 9) was added to 15 μL of the obtained supernatant, followed by further addition of 30 μL of 20 mmol/L FDAA solution in acetone and incubation at 40° C. for one hour. Subsequently, 10 μL of 1 mol/L hydrochloric acid was added to stop the derivatization reaction. The resulting solution was diluted by adding 80 μL of methanol, and then centrifuged at 12,000 rpm. The obtained supernatant was used as a FDAA derivative solution.
The amount of produced hydroxy-L-pipecolic acid or hydroxy-L-proline was analyzed with UPLC-MS (manufactured by Waters Co.).
An aliquot containing 5 μg of total protein was taken from each enzyme solution obtained in Example 2, loaded on each lane, and then electrophoresed on polyacrylamide gel. The obtained electrophoretogram was analyzed using the image analysis software Image Lab3.0 (manufactured by Bio-Rad Laboratories, Inc.) to determine the content of each hydroxylase. A carbonic anhydrase (manufactured by Sigma-Aldrich Co. LLC) was used as a quantification reference. The content of a hydroxylase of interest was calculated from the signal intensity of the enzyme of interest, based on the signal intensities of bands corresponding to 200 ng, 400 ng and 600 ng of the quantification reference provided for the electrophoresis.
The catalytic efficiency of each enzyme was calculated based on the Michaelis-Menten kinetic equation.
It is known that, in FIG. 1, the reciprocal of each intercept with the x-axis, multiplied with −1, represents a km value (mmol/L) and the reciprocal of each intercept with the y-axis represents a Vmax value (U/mg), the maximum rate of reaction.
The catalytic ability per molecule of the enzyme (kcat) can be calculated from the Vmax and the molecular weight of the enzyme. Table 5 indicates the result of the calculation of catalytic efficiency (kcat/km), which is an index representing the catalytic ability of an enzyme, based on the obtained kcat and km values.

[2] = Reactivity comparison of L-pipecolic acid 5-hydroxylases, substrate L-proline (Example 4); settings: for Relative activity, Substrate: L-proline (hydroxy-L-proline-producing activity, 100 = hydroxy-L-pipecolic acid-producing activity): 10 mmol/L substrate, 30° C., 30 minutes; for hydroxy-L-proline detected from the reaction solution: Example 4, 10 mmol/L L-proline, in words
Method: (§1) The detection of the products was based on the absorbance at a wavelength of 340 nm.
(§2) The activity values were evaluated by the amount of a product per gram of total protein (U/g-protein).

[3] = Production of hydroxy-L-pipecolic acids by culture of recombinant E. coli expressing the hydroxylase (Example 5); type: cell-based, E. coli BL21 (DE3); settings: for Accumulation of (4S)-hydroxy-L-proline: 120 hours; for Accumulation amount of (4S)-hydroxy-L-proline / Accumulation amount of (5S)-Hydroxy-L-pipecolic acid / Accumulation amount of L-pipecolic acid / Accumulation amount of (4R)-hydroxy-L-proline / Accumulation amount of (4S)-hydroxy-L-pipecolic acid: 20 mmol/L L-pipecolic acid in medium, 30° C.; for Accumulation of (4R)-hydroxy-L-proline: 64 hours; for Conversion of the substrate to (4S)-hydroxy-L-pipecolic acid: incubation for 64 hours
[4] = Reactivity comparison of L-pipecolic acid 5-hydroxylases, substrate L-pipecolic acid (Example 4); settings: 10 mmol/L substrate, 30° C., 30 minutes; hydroxy-L-pipecolic acid-producing activity set to 100
Method: as §1, §2

B1: KjPH: amino acid hydroxylase from Kordia jejudonensis, GenBank WP_046758372, SEQ ID NO: 18 (protein, listed as Kordia jejudonensis)
chain: MESKIIGKVNFEEHLLDKELKLIDTFEFNDSYSEYASGIWKTCMLWNRSGQKDDHLSIEHDTYVKPTEYGKQLAYVNEIIANTFKKEHIKTVRLFMCINGLIIPHKDYLEFKKGFTRIHIPLKINEHALTSEEDVVYNMQKGEIWFIEGRKIHSAANFSKVKRINLVIDFAPDIPFEELFLNSENYQPNLIPKISQRTQLKEEELGYIKGLSKIINEMNFDDILSILSKIHFYRNVSSELVFGWLDEIATASNNYNIQRKAQEVTDLLIRKGPINN
hydroxy-L-proline detected from the reaction solution [1]: small amount of hydroxy-L-proline was detected

B2: SmPH: L-proline cis-4-hydroxylase from Sinorhizobium meliloti 1021, GenBank CAC47686, SEQ ID NO: 10 (protein, listed as Sinorhizobium meliloti)
chain: MSTHFLGKVKFDEARLAEDLSTLEVAEFSSAYSDFACGKWEACVLRNRTGMQEEDIVVSHNAPALATPLSKSLPYLNELVETHFDCSAVRYTRIVRVSENACIIPHSDYLELDETFTRLHLVLDTNSGCANTEEDKIFHMGLGEIWFLDAMLPHSAACFSKTPRLHLMIDFEATAFPESFLRNVEQPVTTRDMVDPRKELTDEVIEGILGFSIIISEANYREIVSILAKLHFFYKADCRSMYDWLKEICKRRGDPALIEKTASLERFFLGHRERGEVMTY
Relative activity, Substrate: L-proline (hydroxy-L-proline-producing activity, 100 = hydroxy-L-pipecolic acid-producing activity) [2]: 46% | hydroxy-L-proline detected from the reaction solution [2]: small amount of hydroxy-L-proline was detected | hydroxy-L-proline detected from the reaction solution [1]: small amount of hydroxy-L-proline was detected | Accumulation of (4S)-hydroxy-L-proline ([3]; in words): Accumulation of (4S)-hydroxy-L-proline was confirmed | Accumulation amount of (4S)-hydroxy-L-proline ([3]; after 120 hours): 0.2 mmol/L | Accumulation amount of (5S)-Hydroxy-L-pipecolic acid ([3]; after 120 hours): 9.4 mmol/L | Accumulation amount of L-pipecolic acid ([3]; after 120 hours): 5.6 mmol/L | Relative activity, Substrate: L-pipecolic acid [4]: 100%

B3: CgPH: L-pipecolic acid trans-4-hydroxylase from Colletotrichum gloeosporioides Nara qc5, GenBank ELA34460, SEQ ID NO: 12 (protein)
chain: MSDKGATLDMSLFFGTPEEKGYFCTELLRLLKLRGGVKIQNHSIPDEDIHKLFDMSRKFFALPLETKMEAKHPPQANPNRGYSFIGQENVANISGYEKGLGPGKTRDIKETLDMGSAQDDLVDNLWIPEESLPGFRGFMESFYEKAFKTEMQLLSALAIALGVSEDHMKTLHNRAENEFRLLHYPAIPATELADGTATRIAEHTDFGTITMLFQDSVGGLQVEDQTQPGVFRSVESEKPTDIILNIGDSLQRLTNDTFRAACHRVTYPPAIKARDNVQIPERYSIAYFVKPNRHASLLPLKEFITDATPCRYEDVTAWEWNNRRITKLFG
modifications: Colletotrichum gloeosporioides
hydroxy-L-proline detected from the reaction solution [1]: no hydroxy-L-proline was detected | Activity, Substrate: L-proline (cell spanning Km to kcat/Km) [1]: (No activity) | Accumulation of (4R)-hydroxy-L-proline ([3]; in words): no accumulation of (4R)-hydroxy-L-proline was confirmed | Accumulation amount of (4R)-hydroxy-L-proline ([3]; after 64 hours): 0 mmol/L | Accumulation amount of (4S)-hydroxy-L-pipecolic acid ([3]; after 64 hours): 19.1 mmol/L | Accumulation amount of L-pipecolic acid ([3]; after 64 hours): 0.2 mmol/L | Conversion of the substrate to (4S)-hydroxy-L-pipecolic acid ([3]; in words): a major amount of the substrate was allowed to convert to (4S)-hydroxy-L-pipecolic acid

B4: SruPH: L-pipecolic acid cis-5-hydroxylase from Segniliparus rugosus ATCC BAA-974, GenBank EFV12517, SEQ ID NO: 4 (protein, listed as Segniliparus rugosus)
chain: MKSYSLGKFEDRSIDSLIEEASGLPDSAYSSAYQEYSIGLWDTATLWNERGNESGEVSEHAAAAAPTAIGRSTPRLNEFVRAKFNVDVLRAVRLFRARQGAIIIPHRDYLEHSNGFCRIHLPLVTTPGARNSENNEVYRMLPGELWFLDSNEVHSGGVLDSGTRIHLVLDFTHEHNENPAAVLKNADRLRPIARDPRISRSKLDHEALESLIRGGRVVTLAMWPALVQMLARIHLTSDAHPAELYDWLDDLADRSGNDELVAEARRMRRYFLTDGISRTPSFERFWRELDAARKGELVS
Relative activity, Substrate: L-proline (hydroxy-L-proline-producing activity, 100 = hydroxy-L-pipecolic acid-producing activity) [2]: 59% | hydroxy-L-proline detected from the reaction solution [2]: small amount of hydroxy-L-proline was detected | hydroxy-L-proline detected from the reaction solution [1]: small amount of hydroxy-L-proline was detected | Accumulation of (4S)-hydroxy-L-proline ([3]; in words): Accumulation of (4S)-hydroxy-L-proline was confirmed | Accumulation amount of (4S)-hydroxy-L-proline ([3]; after 120 hours): 1.8 mmol/L | Accumulation amount of (5S)-Hydroxy-L-pipecolic acid ([3]; after 120 hours): 22.5 mmol/L | Accumulation amount of L-pipecolic acid ([3]; after 120 hours): 0.1 mmol/L | Conversion of the substrate to (5S)-hydroxy-L-pipecolic acid ([3]; incubation for 120 hours, in words): almost the entire amount of the substrate was allowed to convert to (5S)-hydroxy-L-pipecolic acid | Relative activity, Substrate: L-pipecolic acid [4]: 100%

B5: XdPH: L-proline cis-4-hydroxylase from Xenorhabdus doucetiae FRM16, GenBank CDG16639, SEQ ID NO: 8 (protein, listed as Xenorhabdus doucetiae)
chain: MMSAKLLASIELNQEQIEHDLNIVGSEILDVAYSEYACGNWGTITLWNHSGDAGDQTSREYVGQARPTELGQQLDCINQLIRNNFNISLIKSVRIFRSYNGGAIYPHIDYLEFNQGFKRVHLVLKSDRSCLNSEENTVYHMLPGEVWFVDGHSAHSAMSLSRVGKYSLVLDFDSGAKFEDLYSESHTLCVDNLEPDIIHDRQPLPTSLRDSLAHIAEHADEFNIQSILFLATRFHFSYAVSIREYFQLLDECFSRNPYKSVRERYEALKDILVRSGYTSHNVNHFNSLSGVTIG
Relative activity, Substrate: L-proline (hydroxy-L-proline-producing activity, 100 = hydroxy-L-pipecolic acid-producing activity) [2]: 37% | hydroxy-L-proline detected from the reaction solution [2]: small amount of hydroxy-L-proline was detected | hydroxy-L-proline detected from the reaction solution [1]: small amount of hydroxy-L-proline was detected | Accumulation of (4S)-hydroxy-L-proline ([3]; in words): Accumulation of (4S)-hydroxy-L-proline was confirmed | Accumulation amount of (4S)-hydroxy-L-proline ([3]; after 120 hours): 0.3 mmol/L | Accumulation amount of (5S)-Hydroxy-L-pipecolic acid ([3]; after 120 hours): 15.2 mmol/L | Accumulation amount of L-pipecolic acid ([3]; after 120 hours): 10.6 mmol/L | Relative activity, Substrate: L-pipecolic acid [4]: 100%

B6: PcPH: L-pipecolic acid trans-4-hydroxylase from Penicillium chrysogenum Wisconsin 54-1255, GenBank XP_002558179, SEQ ID NO: 14 (protein, listed as Penicillium chrysogenum)
chain: MSQALDLSLLKGSPEERDEVSAALLDTLKTRGVAKLKNHGLPEDLIAEMFDYTRRFFSLSLEDKMTAKHPPEANPNRGYSYVGQESVSSISGYEKGLPQGKTIRDIKETLDMGSPHDSLVDNIWVAEEKLPGFRKFMEDFYESCFKVELEILDALAQALEISAPDLRLLHNKAENEFRLLHYPAVPASALEDGTATRIAEHTDFGTITMLFQDSTGGLQVEDQTNLGTFHDVVSGGKSEIILNIGDSLQRLTNDTFMAACHRVTYPPTVKVGSDVVIPERYSVAYFAKPNRIASLFPLKKFITPATPCKYEDITAWDYNNLRIAKLFS
hydroxy-L-proline detected from the reaction solution [1]: no hydroxy-L-proline was detected | Activity, Substrate: L-proline (cell spanning Km to kcat/Km) [1]: (No activity) | Accumulation of (4R)-hydroxy-L-proline ([3]; in words): no accumulation of (4R)-hydroxy-L-proline was confirmed | Accumulation amount of (4R)-hydroxy-L-proline ([3]; after 64 hours): 0 mmol/L | Accumulation amount of (4S)-hydroxy-L-pipecolic acid ([3]; after 64 hours): 17.4 mmol/L | Accumulation amount of L-pipecolic acid ([3]; after 64 hours): 2.1 mmol/L | Conversion of the substrate to (4S)-hydroxy-L-pipecolic acid ([3]; in words): a major amount of the substrate was allowed to convert to (4S)-hydroxy-L-pipecolic acid
